Data reported in patent US20230227561A1 (REGENTS OF THE UNIVERSITY OF MINNESOTA, published 2023).
One block for each binder: values may come before it.

What was measured:
[1] = molecular target: T1, canine CD16A on dog peripheral blood leukocytes / PBMC (canine, UniProt E2RP87 1-249); assay: flow cytometry, FITC protein at 80 nM, PBMC of dog Maverick
T1 construct: Native protein on primary dog cells of various breeds
T1 sequence: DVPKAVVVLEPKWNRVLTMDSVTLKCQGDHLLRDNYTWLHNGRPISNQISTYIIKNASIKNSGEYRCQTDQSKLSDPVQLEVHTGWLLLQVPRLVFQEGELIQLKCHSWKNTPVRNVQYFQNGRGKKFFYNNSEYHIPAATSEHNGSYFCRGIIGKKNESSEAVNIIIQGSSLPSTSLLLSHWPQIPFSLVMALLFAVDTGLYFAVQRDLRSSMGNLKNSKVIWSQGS
Description: (§1) To test the binding of the anti-CD16 domain, binding was evaluated on canine peripheral blood mononuclear cells (PBMC) that contained canine NK cells, T cells, B cells, and monocytes (Table 2). A single batch of 1615B7H3 TriKE (SEQ ID NO:56) was directly labeled with FITC fluorochrome and tested. The binding of the anti-CD16 fragment alone (anti-CD16-FITC) was tested as a positive control. Binding of an anti-B7H3 fragment alone (antiB7H3-FITC) was tested as a negative control.

[2] = molecular target: T1, canine CD16A on dog peripheral blood …; assay: flow cytometry, FITC protein at 80 nM, dog PBMC treated with IL-15 for 6 days
Description: as §1

[3] = molecular target: T1, canine CD16A on dog peripheral blood …; assay: flow cytometry, FITC protein at 2000 nM, PBMC of dog Maverick
Description: as §1

[4] = molecular target: T1, canine CD16A on dog peripheral blood …; assay: flow cytometry, FITC protein at 80 nM, PBMC of dog Never
Description: as §1

[5] = molecular target: T1, canine CD16A on dog peripheral blood …; assay: flow cytometry, FITC protein at 400 nM, PBMC of dog Never
Description: as §1

[6] = molecular target: T1, canine CD16A on dog peripheral blood …; assay: flow cytometry, FITC protein at 400 nM, PBMC of dog Maverick
Description: as §1

[7] = molecular target: T1, canine CD16A on dog peripheral blood …; assay: flow cytometry, FITC protein at 400 nM, dog PBMC treated with IL-15 for 6 days
Description: as §1

[8] = molecular target: T1, canine CD16A on dog peripheral blood …; assay: flow cytometry, FITC protein at 2000 nM, dog PBMC treated with IL-15 for 6 days
Description: as §1

[9] = molecular target: T1, canine CD16A on dog peripheral blood …; assay: flow cytometry, FITC protein at 2000 nM, PBMC of dog Never
Description: as §1

[10] = molecular target: T2, B7-H3 on canine osteosarcoma OSCA78 cells (canine); assay: flow cytometry on OSCA78 cells, 400 nM, experiment 2
T2 construct: whole, on cells

[11] = molecular target: T2, B7-H3 on canine osteosarcoma OSCA78 …; assay: flow cytometry on OSCA78 cells, 400 nM, experiment 1
[12] = molecular target: T2, B7-H3 on canine osteosarcoma OSCA78 …; assay: flow cytometry on OSCA78 cells, 80 nM, experiment 1
[13] = molecular target: T2, B7-H3 on canine osteosarcoma OSCA78 …; assay: flow cytometry on OSCA78 cells, 2000 nM, experiment 1
[14] = molecular target: T2, B7-H3 on canine osteosarcoma OSCA78 …; assay: flow cytometry on OSCA78 cells, 80 nM, experiment 2
[15] = molecular target: T2, B7-H3 on canine osteosarcoma OSCA78 …; assay: flow cytometry on OSCA78 cells, 16 nM, experiment 2
[16] = molecular target: T3, recombinant intact canine CD64 with an N-terminus HA-tag, expressed on NK-92 cells (canine); assay: flow cytometry on NK-92 cCD16A and NK-92 cCD64 cells (FIG. 3A)
T3 construct: also called NK-92 canine CD64 cells; NK-92 cCD64; not shown: N-terminal HA tag from the pDisplay cassette
T3 chain: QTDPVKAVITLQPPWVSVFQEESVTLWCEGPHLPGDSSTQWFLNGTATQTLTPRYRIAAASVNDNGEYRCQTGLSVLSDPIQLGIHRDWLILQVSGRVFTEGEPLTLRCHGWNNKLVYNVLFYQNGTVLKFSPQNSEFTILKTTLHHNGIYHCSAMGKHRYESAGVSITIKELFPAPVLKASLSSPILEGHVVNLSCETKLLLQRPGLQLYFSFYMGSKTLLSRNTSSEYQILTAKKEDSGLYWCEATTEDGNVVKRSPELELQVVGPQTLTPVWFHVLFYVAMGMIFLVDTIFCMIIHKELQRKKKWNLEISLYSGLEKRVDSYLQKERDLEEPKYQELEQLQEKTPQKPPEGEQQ

[17] = molecular target: T1, canine CD16A on dog peripheral blood …; assay: flow cytometry on dog peripheral blood leukocytes (FIG. 4A)
From the text: Flow cytometry was used to examine the expression patterns of CD16A and CD64 by dog peripheral blood leukocytes. The general leukocyte populations of polymorphonuclear cells (PMNs), monocytes, and lymphocytes were identified based on their characteristic forward and side light-scattering and by their expression of well characterized markers, including CD4 (neutrophils and lymphocyte), CD14 (monocytes), and CD5 (T cells) (FIG. 4A). The anti-canine CD16A clone 4A5 stained a subset of monocytes and lymphocytes, and for some dogs it marginally stained PMNs and/or a small subset of cells in this population (FIG. 4A). This staining pattern was consistent for all the anti-canine CD16 mAbs generated, which had distinct complementarity-determining region nucleotide sequences from 4A5. […]
For cell staining, nonspecific antibody binding sites were blocked for 30 min using 25% canine serum and 25% FBS in PBS buffer (without Ca⁺² and Mg⁺²) (Lonza Group AG, Basel, Switzerland) prior to their staining with antibodies. All cell staining was analyzed on a FACSCelesta instruments (BD Biosciences, Franklin Lakes, N.J.), as previously described (Snyder et al., Vet Immunol Immunopathol 231:110162, 2021). Briefly, for controls, fluorescence minus one was used as well as appropriate isotype-matched antibodies. […]

binding (flow cytometry read-out, unit not given) [1]: 10.1
binding (flow cytometry read-out, unit not given) [2]: 6.2
binding (flow cytometry read-out, unit not given) [3]: 43.6
binding (flow cytometry read-out, unit not given) [4]: 3.7
binding (flow cytometry read-out, unit not given) [5]: 8.8
binding (flow cytometry read-out, unit not given) [6]: 26.5
binding (flow cytometry read-out, unit not given) [7]: 15.3
binding (flow cytometry read-out, unit not given) [8]: 35.8
binding (flow cytometry read-out, unit not given) [9]: 23.8
B1: anti-canine CD16 antibody fragment alone (other)
VL: MEQILLTQSPAIMSASPGEKVTMTCSASSSVGYMHWYQQKPGSSPKPWIYDTSDLASGFPARFSGSRSGTSYSLIISSMEAEDAATYYCHQRSFYPYTFGGGTKLEIK
VH: EVQLQQSGAELVRSGASVKLSCTASGFNIKDYYMHWVKQRPEQGLEWIGWLDPENGDTVYAPKFQGRATMTADTSSNTAYLHLSSLTSEDTAVYYCNALVYSLLGQDYWGQGTTLTVSS
modifications: FITC-labelled in the PBMC assay (sites not given)
notes: also called anti-CD16; anti-CD16-FITC

binding (flow cytometry read-out, unit not given) [10]: 93.7
binding (flow cytometry read-out, unit not given) [11]: 98.8
binding (flow cytometry read-out, unit not given) [12]: 64
binding (flow cytometry read-out, unit not given) [13]: 99.8
binding (flow cytometry read-out, unit not given) [14]: 42.1
binding (flow cytometry read-out, unit not given) [15]: 2.8
B2: anti-B7H3 antibody fragment alone (VHH)
VHH: QVQLVESGGGLVQPGGSLRLSCAASGFTFSSYWMYWVRQTPGKGLEWVSTINRDGSATWYADSVKGRFTISRDNAKNTGYLQMNSLKPDDTAVYYCVSDPDNYSSDEMVPYWGQGTQVTVSS
modifications: FITC-labelled in the PBMC assay (sites not given)
notes: The kind VHH is inferred from the single variable domain and the label 1615CAMB7H3; also called antiB7H3-FITC; anti-B7H3 fragment

binding result [16]: no binding
binding result [17]: binds
B3: anti-canine CD16A mAb (clone 4A5) (antibody, IgG1)
VH: EVQLQQSGAELVRSGASVKLSCTASGFNIKDYYMHWVKQRPEQGLEWIGWLDPENGDTVYAPKFQGRATMTADTSSNTAYLHLSSLTSEDTAVYYCNALVYSLLGQDYWGQGTTLTVSSAKTTPPSVYPLAPGSAAQTNSMVTLGCLVKGYFPEPVTVTWNSGSLSSGVHTFPAVLQSDLYTLSSSVTVPSS
VL: QILLTQSPAIMSASPGEKVTMTCSASSSVGYMHWYQQKPGSSPKPWIYDTSDLASGFPARFSGSRSGTSYSLIISSMEAEDAATYYCHQRSFYPYTFGGGTKLEIKRADAAPTVSIFPPSSEQLTSGGASVVCFLNNFYPKDINVKWKIDGSERQNGVLNSWTDQDSKDSTYSMSSTLTLTK
notes: also called anti-CD16A mAb clone 4A5; anti-canine CD16 (clone 4A5)
